These results are taken from IntAct's records for PubMed 11018022.

B1: Insulin receptor substrate 1 (Rattus norvegicus (Rat)), P35570 (parent)
chain: MASPPDTDGFSDVRKVGYLRKPKSMHKRFFVLRAASEAGGPARLEYYENEKKWRHKSSAPKRSIPLESCFNINKRADSKNKHLVALYTRDEHFAIAADSEAEQDSWYQALLQLHNRAKAHHDGAGGGCGGSCSGSSGVGEAGEDLSYDTGPGPAFKEVWQVILKPKGLGQTKNLIGIYRLCLTSKTISFVKLNSEAAAVVLQLMNIRRCGHSENFFFIEVGRSAVTGPGEFWMQVDDSVVAQNMHETILEAMRAMSDEFRPRTKSQSSSSCSNPISVPLRRHHLNNPPPSQVGLTRRSRTESITATSPASMVGGKPGSFRVRASSDGEGTMSRPASVDGSPVSPSTNRTHAHRHRGSSRLHPPLNHSRSIPMPSSRCSPSATSPVSLSSSSTSGHGSTSDCLFPRRSSASVSGSPSDGGFISSDEYGSSPCDFRSSFRSVTPDSLGHTPPARGEEELSNYICMGGKGASTLTAPNGHYILSRGGNGHRYIPGATMGTSPALTGDEAAGAADLDNRFRKRTHSAGTSPTISHQKTPSQSSVVSIEEYTEMMPAAYPPGGGSGGRLPGYRHSAFVPTHSYPEEGLEMHHLERRGGHHRPDSSNLHTDDGYMPMSPGVAPVPSNRKGNGDYMPMSPKSVSAPQQIINPIRRHPQRVDPNGYMMMSPSGSCSPDIGGGSCSSSSISAAPSGSSYGKPWTNGVGGHHTHALPHAKPPVESGGGKLLPCTGDYMNMSPVGDSNTSSPSECYYGPEDPQHKPVLSYYSLPRSFKHTQRPGEPEEGARHQHLRLSSSSGRLRYTATAEDSSSSTSSDSLGGGYCGARPESSVTHPHHHALQPHLPRKVDTAAQTNSRLARPTRLSLGDPKASTLPRVREQQQQQQQQQQSSLHPPEPKSPGEYVNIEFGSGQPGYLAGPATSRSSPSVRCLPQLHPAPREETGSEEYMNMDLGPGRRATWQESGGVELGRVGPAPPGAASICRPTRSVPNSRGDYMTMQIGCPRQSYVDTSPVAPVSYADMRTGIAAEKVSLPRTTGAAPPPSSTASASASVTPQGAAEQAAHSSLLGGPQGPGGMSAFTRVNLSPNHNQSAKVIRADTQGCRRRHSSETFSAPTRAANTVSFGAGAAGGGSGGGSEDVKRHSSASFENVWLRPGDLGGASKESAPGCGAAGGLEKSLNYIDLDLVKDVKQHPQDCPSQQQSLPPPPPHQPLGSNEGSSPRRSSEDLSTYASINFQKQPEDRQ

In the test the parent is B1. The note with it: with phip_mouse Phip.
Turning to W106A, the “effect of a mutation on the interaction” value is given as “disrupting interaction”.
